The text below walks through data of patent US20160272683A1 (Novo Nordisk, published 2016).

Assay [1] has as its target T1, human amylin 3(a) receptor (human calcitonin receptor co-expressed with RAMP-3) on BHK570/CRE-luc cells (human, UniProt P30988 25-474; O60896 24-148).
T1 sequence (looked up) 1: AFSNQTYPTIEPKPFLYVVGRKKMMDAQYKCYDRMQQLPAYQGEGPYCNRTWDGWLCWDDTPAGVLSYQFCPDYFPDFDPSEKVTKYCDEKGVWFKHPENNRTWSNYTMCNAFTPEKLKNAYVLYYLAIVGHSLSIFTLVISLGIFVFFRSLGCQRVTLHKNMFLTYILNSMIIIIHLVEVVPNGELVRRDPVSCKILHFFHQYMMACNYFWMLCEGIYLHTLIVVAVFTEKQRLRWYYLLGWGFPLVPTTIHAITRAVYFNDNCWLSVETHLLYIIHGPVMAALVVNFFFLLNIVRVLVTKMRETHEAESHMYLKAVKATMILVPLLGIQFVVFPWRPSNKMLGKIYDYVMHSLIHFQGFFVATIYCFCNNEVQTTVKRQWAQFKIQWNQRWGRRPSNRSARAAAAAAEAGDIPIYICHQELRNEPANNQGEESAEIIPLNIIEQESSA
T1 sequence (looked up) 2: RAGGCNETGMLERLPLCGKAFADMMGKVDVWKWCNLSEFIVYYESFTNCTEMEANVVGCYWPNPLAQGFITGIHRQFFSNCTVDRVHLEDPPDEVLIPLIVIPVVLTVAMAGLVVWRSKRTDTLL
Description: cell-based or functional assay.

Assay [2] addresses T2, human calcitonin receptor on BHK570/CRE-luc cells (human, UniProt P30988 25-474).
T2 sequence (looked up): T1 sequence (looked up) 1
The assay can be described thus: cell-based or functional assay.

Numbered stars: 1 amine (or outer) side, 2 acyl side, 3 side chain; on linkers, the order of the positions; unused ones are H or OH. * marks the point of attachment. C20 diacid = O=C(O)CCCCCCCCCCCCCCCCCCC(=O)*; γGlu = O=C(O)[C@H](CCC(=O)[*:2])N[*:1]

B1: [N-terminal(C20 diacid-gGlu), des1, 4G, 9T, 15Q, 21Q, 23Y, 25P, 30S, 31G, 32T, 33Y]mimylin (peptide)
peptide: {C20 diacid-γGlu}-ASGLSTATLGRLSQELHELQTYPPTETGSGTY-NH2
SMILES: CC(C)C[C@H](NC(=O)CNC(=O)[C@H](CO)NC(=O)[C@H](C)NC(=O)CC[C@H](NC(=O)CCCCCCCCCCCCCCCCCCC(=O)O)C(=O)O)C(=O)N[C@@H](CO)C(=O)N[C@H](C(=O)N[C@@H](C)C(=O)N[C@H](C(=O)N[C@@H](CC(C)C)C(=O)NCC(=O)N[C@@H](CCCNC(=N)N)C(=O)N[C@@H](CC(C)C)C(=O)N[C@@H](CO)C(=O)N[C@@H](CCC(N)=O)C(=O)N[C@@H](CCC(=O)O)C(=O)N[C@@H](CC(C)C)C(=O)N[C@@H](Cc1c[nH]cn1)C(=O)N[C@@H](CCC(=O)O)C(=O)N[C@@H](CC(C)C)C(=O)N[C@@H](CCC(N)=O)C(=O)N[C@H](C(=O)N[C@@H](Cc1ccc(O)cc1)C(=O)N1CCC[C@H]1C(=O)N1CCC[C@H]1C(=O)N[C@H](C(=O)N[C@@H](CCC(=O)O)C(=O)N[C@H](C(=O)NCC(=O)N[C@@H](CO)C(=O)NCC(=O)N[C@H](C(=O)N[C@@H](Cc1ccc(O)cc1)C(N)=O)[C@@H](C)O)[C@@H](C)O)[C@@H](C)O)[C@@H](C)O)[C@@H](C)O)[C@@H](C)O
For B1, in assay [1], the “hAmylin-R funct. EC50 (pM), tested with HSA” value (“hAmylin-R funct. EC50 (pM)” for short) came out at 173 pM. Besides, the “hCTR funct. EC50 (pM), tested with HSA” value in assay [2] was 77 pM.

B2: [N-terminal(C20 diacid-gGlu), des1, 4G, 9V, 15Q, 21Q, 23Y, 25P, 30S, 31Q, 32T, 33Y]mimylin (peptide)
peptide: {C20 diacid-γGlu}-ASGLSTAVLGRLSQELHELQTYPPTETGSQTY-NH2
SMILES: CC(C)C[C@H](NC(=O)CNC(=O)[C@H](CO)NC(=O)[C@H](C)NC(=O)CC[C@H](NC(=O)CCCCCCCCCCCCCCCCCCC(=O)O)C(=O)O)C(=O)N[C@@H](CO)C(=O)N[C@H](C(=O)N[C@@H](C)C(=O)N[C@H](C(=O)N[C@@H](CC(C)C)C(=O)NCC(=O)N[C@@H](CCCNC(=N)N)C(=O)N[C@@H](CC(C)C)C(=O)N[C@@H](CO)C(=O)N[C@@H](CCC(N)=O)C(=O)N[C@@H](CCC(=O)O)C(=O)N[C@@H](CC(C)C)C(=O)N[C@@H](Cc1c[nH]cn1)C(=O)N[C@@H](CCC(=O)O)C(=O)N[C@@H](CC(C)C)C(=O)N[C@@H](CCC(N)=O)C(=O)N[C@H](C(=O)N[C@@H](Cc1ccc(O)cc1)C(=O)N1CCC[C@H]1C(=O)N1CCC[C@H]1C(=O)N[C@H](C(=O)N[C@@H](CCC(=O)O)C(=O)N[C@H](C(=O)NCC(=O)N[C@@H](CO)C(=O)N[C@@H](CCC(N)=O)C(=O)N[C@H](C(=O)N[C@@H](Cc1ccc(O)cc1)C(N)=O)[C@@H](C)O)[C@@H](C)O)[C@@H](C)O)[C@@H](C)O)C(C)C)[C@@H](C)O
Take B2: the “hAmylin-R funct. EC50 (pM)” value in assay [1] was 152 pM. Moreover, in assay [2], the “hCTR funct. EC50 (pM), tested with HSA” value amounted to 72 pM.

B3: [N-terminal(C20 diacid-gGlu), des1, 2L, 4G, 9V, 15Q, 21Q, 23Y, 30S, 31Q, 32T, 33Y]mimylin (peptide)
peptide: {C20 diacid-γGlu}-LSGLSTAVLGRLSQELHELQTYPRTETGSQTY-NH2
SMILES: CC(C)C[C@H](NC(=O)CC[C@H](NC(=O)CCCCCCCCCCCCCCCCCCC(=O)O)C(=O)O)C(=O)N[C@@H](CO)C(=O)NCC(=O)N[C@@H](CC(C)C)C(=O)N[C@@H](CO)C(=O)N[C@H](C(=O)N[C@@H](C)C(=O)N[C@H](C(=O)N[C@@H](CC(C)C)C(=O)NCC(=O)N[C@@H](CCCNC(=N)N)C(=O)N[C@@H](CC(C)C)C(=O)N[C@@H](CO)C(=O)N[C@@H](CCC(N)=O)C(=O)N[C@@H](CCC(=O)O)C(=O)N[C@@H](CC(C)C)C(=O)N[C@@H](Cc1c[nH]cn1)C(=O)N[C@@H](CCC(=O)O)C(=O)N[C@@H](CC(C)C)C(=O)N[C@@H](CCC(N)=O)C(=O)N[C@H](C(=O)N[C@@H](Cc1ccc(O)cc1)C(=O)N1CCC[C@H]1C(=O)N[C@@H](CCCNC(=N)N)C(=O)N[C@H](C(=O)N[C@@H](CCC(=O)O)C(=O)N[C@H](C(=O)NCC(=O)N[C@@H](CO)C(=O)N[C@@H](CCC(N)=O)C(=O)N[C@H](C(=O)N[C@@H](Cc1ccc(O)cc1)C(N)=O)[C@@H](C)O)[C@@H](C)O)[C@@H](C)O)[C@@H](C)O)C(C)C)[C@@H](C)O
In the case of B3, in assay [1], the “hAmylin-R funct. EC50 (pM)” value was 140 pM. In assay [2], the “hCTR funct. EC50 (pM), tested with HSA” value came out at 73 pM.

B4: [N-terminal(C20 diacid-gGlu), des1, 4G, 8L, 9V, 15Q, 21Q, 23Y, 30S, 31Q, 32T, 33Y]mimylin (peptide)
peptide: {C20 diacid-γGlu}-ASGLSTLVLGRLSQELHELQTYPRTETGSQTY-NH2
SMILES: CC(C)C[C@H](NC(=O)CNC(=O)[C@H](CO)NC(=O)[C@H](C)NC(=O)CC[C@H](NC(=O)CCCCCCCCCCCCCCCCCCC(=O)O)C(=O)O)C(=O)N[C@@H](CO)C(=O)N[C@H](C(=O)N[C@@H](CC(C)C)C(=O)N[C@H](C(=O)N[C@@H](CC(C)C)C(=O)NCC(=O)N[C@@H](CCCNC(=N)N)C(=O)N[C@@H](CC(C)C)C(=O)N[C@@H](CO)C(=O)N[C@@H](CCC(N)=O)C(=O)N[C@@H](CCC(=O)O)C(=O)N[C@@H](CC(C)C)C(=O)N[C@@H](Cc1c[nH]cn1)C(=O)N[C@@H](CCC(=O)O)C(=O)N[C@@H](CC(C)C)C(=O)N[C@@H](CCC(N)=O)C(=O)N[C@H](C(=O)N[C@@H](Cc1ccc(O)cc1)C(=O)N1CCC[C@H]1C(=O)N[C@@H](CCCNC(=N)N)C(=O)N[C@H](C(=O)N[C@@H](CCC(=O)O)C(=O)N[C@H](C(=O)NCC(=O)N[C@@H](CO)C(=O)N[C@@H](CCC(N)=O)C(=O)N[C@H](C(=O)N[C@@H](Cc1ccc(O)cc1)C(N)=O)[C@@H](C)O)[C@@H](C)O)[C@@H](C)O)[C@@H](C)O)C(C)C)[C@@H](C)O
For the molecule B4, the “hAmylin-R funct. EC50 (pM)” value in assay [1] worked out at 223 pM. Further, the “hCTR funct. EC50 (pM), tested with HSA” value in assay [2] was determined as 142 pM.

B5: [N-terminal(C20 diacid-gGlu), 2L, 4G, 8L, 9V, 15Q, 21Q, 23Y, 27G, 30S, 31G, 32T, 33Y]mimylin (peptide)
peptide: {C20 diacid-γGlu}-ELSGLSTLVLGRLSQELHELQTYPRTGTGSGTY-NH2
SMILES: CC(C)C[C@H](NC(=O)CNC(=O)[C@H](CO)NC(=O)[C@H](CC(C)C)NC(=O)[C@H](CCC(=O)O)NC(=O)CC[C@H](NC(=O)CCCCCCCCCCCCCCCCCCC(=O)O)C(=O)O)C(=O)N[C@@H](CO)C(=O)N[C@H](C(=O)N[C@@H](CC(C)C)C(=O)N[C@H](C(=O)N[C@@H](CC(C)C)C(=O)NCC(=O)N[C@@H](CCCNC(=N)N)C(=O)N[C@@H](CC(C)C)C(=O)N[C@@H](CO)C(=O)N[C@@H](CCC(N)=O)C(=O)N[C@@H](CCC(=O)O)C(=O)N[C@@H](CC(C)C)C(=O)N[C@@H](Cc1c[nH]cn1)C(=O)N[C@@H](CCC(=O)O)C(=O)N[C@@H](CC(C)C)C(=O)N[C@@H](CCC(N)=O)C(=O)N[C@H](C(=O)N[C@@H](Cc1ccc(O)cc1)C(=O)N1CCC[C@H]1C(=O)N[C@@H](CCCNC(=N)N)C(=O)N[C@H](C(=O)NCC(=O)N[C@H](C(=O)NCC(=O)N[C@@H](CO)C(=O)NCC(=O)N[C@H](C(=O)N[C@@H](Cc1ccc(O)cc1)C(N)=O)[C@@H](C)O)[C@@H](C)O)[C@@H](C)O)[C@@H](C)O)C(C)C)[C@@H](C)O
On to B5, for which the “hAmylin-R funct. EC50 (pM)” value in assay [1] is 565 pM. For the same molecule, in assay [2], the “hCTR funct. EC50 (pM), tested with HSA” value was 852 pM.
